Experimental data: US20240216513A1, “FATTY ACID-BIFUNCTIONAL DEGRADER CONJUGATES AND THEIR METHODS OF USE” (Novartis AG, priority 2021, published 2024)
Marks after values point to notes of the source that are not given here.

How the values were obtained:
[1] = BTK FAC plasma stability assay, PBS buffer arm; type: physicochemical; conditions: for Plasma stability (h) PBS: incubation to 24 h
Outline: (§1)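 Stability in PBS buffer or EDTA-treated plasma is followed over 24 h at 38 °C with shaking. Protein precipitation with acetonitrile (glyburide 0.2 µM as internal standard) stops each timepoint, and LC-MS/MS gives analyte-to-standard area ratios.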

[2] = BTK FAC plasma stability assay, mouse plasma; type: in vitro ADME
Outline: as §1

[3] = BTK FAC plasma stability assay, rat plasma; type: in vitro ADME
Outline: as §1

[4] = BTK FAC plasma stability assay, dog plasma; type: in vitro ADME
[5] = BTK FAC plasma stability assay, cyno plasma; type: in vitro ADME, cynomolgus monkey
BTK C481S = biological target: T1, BTK C481S (Homo sapiens, UniProt Q06187, C481S); assay: PD screen in TMD8 BTK C481S mutant tumor-bearing mice, BTK levels and compound concentrations in blood and tumor; type: in vivo, mouse
T1 construct: endogenous in cells; host or cells: TMD8 BTK C481S mutant tumour xenografts in mice
T1 sequence (Q06187 whole entry C481S): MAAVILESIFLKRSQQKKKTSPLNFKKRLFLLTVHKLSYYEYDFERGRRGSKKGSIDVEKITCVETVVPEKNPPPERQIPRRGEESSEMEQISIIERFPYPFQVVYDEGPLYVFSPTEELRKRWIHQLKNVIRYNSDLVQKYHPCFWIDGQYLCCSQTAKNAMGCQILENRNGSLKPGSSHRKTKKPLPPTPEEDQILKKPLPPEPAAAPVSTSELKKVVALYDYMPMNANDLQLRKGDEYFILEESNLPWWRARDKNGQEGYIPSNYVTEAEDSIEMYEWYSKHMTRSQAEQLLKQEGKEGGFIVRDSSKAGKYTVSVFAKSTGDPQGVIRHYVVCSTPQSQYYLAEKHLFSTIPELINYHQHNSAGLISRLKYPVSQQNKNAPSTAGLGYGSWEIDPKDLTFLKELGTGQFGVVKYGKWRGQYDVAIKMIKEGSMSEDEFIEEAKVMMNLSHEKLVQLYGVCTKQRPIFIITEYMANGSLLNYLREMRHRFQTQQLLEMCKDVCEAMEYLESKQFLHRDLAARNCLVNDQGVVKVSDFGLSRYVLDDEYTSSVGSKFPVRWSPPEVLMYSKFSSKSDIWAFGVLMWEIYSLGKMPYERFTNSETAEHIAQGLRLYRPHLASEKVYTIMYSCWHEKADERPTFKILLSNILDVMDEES
Experimental: All animal studies were conducted in accordance with ethics and procedures covered by permit nos. BS-1975 issued by the Kantonales Veterinäramt Basel-Stadt and in strict adherence to guidelines of the Eidgenössisches Tierschutzgesetz and the Eidgenössische Tierschutzverordnung, Switzerland. All animals had access to food and water ad libitum and were identified with transponders. They were housed in a specific pathogen-free facility with a 12-h light/12-h dark cycle. For PD screen experiments in TMD8 BTK C481S mutant tumor-bearing mice, FAC was injected once. Animals were randomized into groups of 2 and tissue samples collected at day 0, 4, 7 and in some studies day 10 as well. Blood samples were collected and tumors were excised, weighed, frozen in liquid nitrogen and cryogenic dry pulverized with the CryoPrep™ system (model CP-02, Covaris). Concentrations of compounds in blood and tumors were determined by UPLC/MS-MS and BTK levels were analyzed by Meso Scale Discovery.

Row | Compound | % Release of degrader after 24 h PBS [1] [%] | Plasma stability (h) PBS [1] [h] | % Release of degrader after 24 h mouse [2] [%] | Plasma stability (h) mouse ([2]; incubation to 24 h) [h] | % Release of degrader after 24 h rat [3] [%] | Plasma stability (h) rat ([3]; incubation to 24 h) [h] | Plasma stability (h) dog [4] [h] | % Release of degrader after 24 h dog [4] [%] | Plasma stability (h) cyno [5] [h] | % Release of degrader after 24 h cyno [5] [%] | Duration of BTK degradation in mouse ≥90% (BTK C481S; i.v., 50 umol/kg) [days] | Duration of BTK degradation in mouse ≥90% (days) (BTK C481S; i.v., 50 umol/kg) | half-life at 5 µM ([2]; incubation to 24 h) [h] | half-life at 5 µM ([3]; incubation to 24 h) [h] | half-life at 5 µM ([4]; read-out: Plasma stability (h) dog (converted)) [h] | half-life at 5 µM ([5]; monkey, read-out: Plasma stability (h) cyno) [h] | Duration of BTK degradation in mouse ≥90% (BTK C481S; i.v., 25 umol/kg) [days] | Duration of BTK degradation in mouse ≥90% (BTK C481S; s.c., 25 umol/kg) [days]
1 | CCCCCCCCCCCN(C(=O)CCCCCCCCCC(=O)O)C(CCC(=O)NCCOCCOCCOCCOCCOCCOCCOCCOCCOCCOCCOCCOCCC(=O)N1CCC(CC(=O)OC(C)(C)c2ccc(C(=O)Nc3cc(F)cc(-c4ncnc5[nH]c(-c6ccc(CCN7CCC8(CC7)CCN(C(=O)c7ccc(OC)c(N9CCC(=O)NC9=O)c7)CC8)cc6)cc45)c3C)c(F)c2)CC1)C(=O)O (stereo not drawn) [Example A21, 44-Carboxy-1-(4-(2-((2-(4-((3-(6-(4-(2-(9-(3-(2,4-dioxotetrahydropyrimidin-1(2H)-yl)-4-methoxybenzoyl)-3,9-diazaspiro[5.5]undecan-3-yl)ethyl)phenyl)-7H-pyrrolo[2,3-d]pyrimidin-4-yl)-5-fluoro-2-methylphenyl)carbamoyl)-3-fluorophenyl)propan-2-yl)oxy)-2-oxoethyl)piperidin-1-yl)-1,41,46-trioxo-45-undecyl-4,7,10,13,16,19,22,25,28,31,34,37-dodecaoxa-40,45-diazahexapentacontan-56-oic acid] | 0.2 | >48 | 1.9 | >48 | 0.5 | >48 | >48 | 0.3 | >48 | 0.4 | <4 | – | – | – | – | – | – | –
2 | CCCCCCCCCCCN(C(=O)CCCCCCCCCC(=O)O)C(CCC(=O)NCCOCCOCCOCCOCCOCCOCCOCCOCCOCCOCCOCCOCCC(=O)N(CC)CC(=O)OC(C)(C)c1ccc(C(=O)Nc2cc(F)cc(-c3ncnc4[nH]c(-c5ccc(CCN6CCC7(CC6)CCN(C(=O)c6ccc(OC)c(N8CCC(=O)NC8=O)c6)CC7)cc5)cc34)c2C)c(F)c1)C(=O)O (stereo not drawn) [Example A13, 50-Carboxy-2-(4-((3-(6-(4-(2-(9-(3-(2,4-dioxotetrahydropyrimidin-1(2H)-yl)-4-methoxybenzoyl)-3,9-diazaspiro[5.5]undecan-3-yl)ethyl)phenyl)-7H-pyrrolo[2,3-d]pyrimidin-4-yl)-5-fluoro-2-methylphenyl)carbamoyl)-3-fluorophenyl)-6-ethyl-2-methyl-4,7,47,52-tetraoxo-51-undecyl-3,10,13,16,19,22,25,28,31,34,37,40,43-tridecaoxa-6,46,51-triazadohexacontan-62-oic acid] | 1.4 | >48 | 3.7 | >48 | 2 | >48 | >48 | 2.7 | >48 | 2.5 | 7 | – | – | – | – | – | – | –
3 | CCCCCCCCCCCN(C(=O)CCCCCCCCCC(=O)O)C(CCC(=O)NCCOCCOCCOCCOCCOCCOCCOCCOCCOCCOCCOCCOCCC(=O)N1CCC[C@H]1CC(=O)OC(C)(C)c1ccc(C(=O)Nc2cc(F)cc(-c3ncnc4[nH]c(-c5ccc(CCN6CCC7(CC6)CCN(C(=O)c6ccc(OC)c(N8CCC(=O)NC8=O)c6)CC7)cc5)cc34)c2C)c(F)c1)C(=O)O (stereo partly drawn) [Example A19, 44-Carboxy-1-((S)-2-(2-((2-(4-((3-(6-(4-(2-(9-(3-(2,4-dioxotetrahydropyrimidin-1(2H)-yl)-4-methoxybenzoyl)-3,9-diazaspiro[5.5]undecan-3-yl)ethyl)phenyl)-7H-pyrrolo[2,3-d]pyrimidin-4-yl)-5-fluoro-2-methylphenyl)carbamoyl)-3-fluorophenyl)propan-2-yl)oxy)-2-oxoethyl)pyrrolidin-1-yl)-1,41,46-trioxo-45-undecyl-4,7,10,13,16,19,22,25,28,31,34,37-dodecaoxa-40,45-diazahexapentacontan-56-oic acid] | 0.3 | >48 | 0.5 | >48 | 0.5 | >48 | >48 | 0.3 | >48 | 0.2 | – | 7* days | – | – | – | – | – | –
4 | CCCCCCCCCCCN(C(=O)CCCCCCCCCCO)C(CCC(=O)NCCOCCOCCOCCOCCOCCOCCOCCOCCOCCOCCOCCOCCC(=O)NCCC(=O)NCCC(=O)OC(C)(C)c1ccc(C(=O)Nc2cc(F)cc(-c3ncnc4[nH]c(-c5ccc(CCN6CCC7(CC6)CCN(C(=O)c6ccc(OC)c(N8CCC(=O)NC8=O)c6)CC7)cc5)cc34)c2C)c(F)c1)C(=O)O (stereo not drawn) [Example A5, 2-(4-((3-(6-(4-(2-(9-(3-(2,4-Dioxotetrahydropyrimidin-1(2H)-yl)-4-methoxybenzoyl)-3,9-diazaspiro[5.5]undecan-3-yl)ethyl)phenyl)-7H-pyrrolo[2,3-d]pyrimidin-4-yl)-5-fluoro-2-methylphenyl)carbamoyl)-3-fluorophenyl)-55-(11-hydroxy-N-undecylundecanamido)-2-methyl-4,8,12,52-tetraoxo-3,15,18,21,24,27,30,33,36,39,42,45,48-tridecaoxa-7,11,51-triazahexapentacontan-56-oic acid] | 0.1 | >48 | 2 | – | 2.5 | – | – | 1 | – | 0.5 | – | – | > 48 | > 48 | > 48 | > 48 | 10 | 10
5 | CCCCCCCCCCCN(C(=O)CCCCCCCCCC(=O)O)C(CCC(=O)NCCOCCOCCOCCOCCOCCOCCOCCOCCOCCOCCOCCOCCC(=O)N[C@H](C)C(=O)OC(C)(C)c1ccc(C(=O)Nc2cc(F)cc(-c3ncnc4[nH]c(-c5ccc(CCN6CCC7(CC6)CCN(C(=O)c6ccc(OC)c(N8CCC(=O)NC8=O)c6)CC7)cc5)cc34)c2C)c(F)c1)C(=O)O (stereo partly drawn) [Example A17, (5R)-50-Carboxy-2-(4-((3-(6-(4-(2-(9-(3-(2,4-dioxotetrahydropyrimidin-1(2H)-yl)-4-methoxybenzoyl)-3,9-diazaspiro[5.5]undecan-3-yl)ethyl)phenyl)-7H-pyrrolo[2,3-d]pyrimidin-4-yl)-5-fluoro-2-methylphenyl)carbamoyl)-3-fluorophenyl)-2,5-dimethyl-4,7,47,52-tetraoxo-51-undecyl-3,10,13,16,19,22,25,28,31,34,37,40,43-tridecaoxa-6,46,51-triazadohexacontan-62-oic acid] | 1.2 | >48 | 2.3 | >48 | 2.5 | >48 | 33.3 | 3.7 | – | – | – | – | – | – | – | – | 4 | –
